Laboratory results: the nanobody polyreactivity screen of Harvey et al. (2022)

Assay: yeast display, Sf9 membrane polyspecificity reagent, FACS + sequencing; frameworks hold sequencing errors
How it was run: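 Sorting gates, low and high (top ~1%), were placed on anti-HA fluorescence to track expression and on streptavidin fluorescence to track reagent binding. A clone's polyreactivity label is taken from the gate it came out of. The reagent was 10% biotinylated, detergent-solubilized Sf9 membrane, applied for 1 hour at 4 °C to galactose-induced yeast display cells.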

Row | Sequence | polyreactivity (PSR sort gate)
1 | QVKHVESGGGLVQAGGSLRLSCAASGFTFSYYAMGWFRQAPGKERELVAAITSGGSTYYADYVKGRFTISRDNAKNTVYLQMNSLKPEDTAVYYCNADGWYYPTDDYWGHGTQVTVSS | low polyreactivity
2 | QVKLKESVGGLVQAGGSLRLSCAASGSISATGNMGWYRQAPGEERELVAAINFGSNTYYADSVKGRFTISRDNAKNTVYLQKSGLKPEDTPVYYCAVDGCYVGPYYYWGQGTQVTVSS | high polyreactivity
3 | QVKLLDSGGGLVQAGGSLRLSCSASGFTFNNYAMVWYRQAPGKERELVAAISWAGGSTYYADSVKGRFTISRDNAKNTVYLQMNTLKPEDTAVYYCAKRIRYTTRPTYGFYYWGQGTQVTVSS | high polyreactivity
4 | QVKLVDSAGGLVQAGVILRLRCAASGSIVRPNAMGWYSQATGKERELVAAITSSGTTNYADSVKVRFTISRDNAKNTVYLQMNSLKPEDTAVYYCAAERKDGGYGYGVWDYYPGENMDYWGQGTQVTVSS | low polyreactivity
5 | QVKLVDSGGGLVQAGGSVGLSCAASGRIFPWYTMGWYRQAPGKERELVAVISSGGRTHYADSVKGRFTISRDNAKNTVYLQMYSLNPEDTAVYDCAAESRYQRYDYWGQGTQVTVSS | high polyreactivity
6 | QVKLVESAGGLVQAGCSLRLSCAASGSIFLKNAKGWYRQSPGKERELVAGITTRGSTYYADSVKGRFTISRDNAKNTVYLQMNSLKPEDTAVYYCAKRDVGYQTRYFYWGQGTQVTVSS | high polyreactivity
7 | QVKLVESGGGLDQAGGSLRLSCAAYGSIFGDYVMGWYRQAPGKEMEFVAAISGSGGSTYYADSVKWRFTISRVNAKNTVYLQMNCLKPEDTAVYYCSTSGPQYYSRNLDYWGQGTQVTVSS | low polyreactivity
8 | QVKLVESGGGLFQAGGSLRLSCADSGRTFYYYGMPWYIQETGKERELVAAINRGDSTKYADSVKGRFTISLDNAKNNVYLHMNSLKPEDTAVYYCNARLRCSFARFIYEYWRQGTQVTVSS | low polyreactivity
9 | QVKLVESGGGLVHAGGSLRLICAASGFTFGEYAMVWSRQSPGKERELVAGISWSGGGTYYADSVKGRFTISRDNAKYTVYLQMNSLKPEDTAVYYCAAVLPSTSYKYDYWGQGTQVTVSS | low polyreactivity
10 | QVKLVESGGGLVQAGCRLRLSCAASGFICGYNAMGWYRQAPGKERELVAAIDWSGTSTYYADSVKWRFTISRDNAKNTVYLQMNSLKPEDSAVYYCAADTSTWDHTRGYDYWGQGTQVTVSS | high polyreactivity
11 | QVKLVESGGGLVQAGGRLRLTCAASGSTISGYAMGWYRQAPGKERQLVATITGGGRTYYADSVKGRFTISRDNAKNTVYLQMNSLKPEDSAVYYFAVRGYHQYKYGYWGQGTQVTVSS | high polyreactivity
12 | QVKLVESGGGLVQAGGSIRLSCAASGSIFWYYAMGWYRQAPGKERELVATITSGGSTSYADSVKGRFTISRDNAKNTVYLQMKSLKPEDTAVYYCAAARLFTTYDWGQGTQVTVSS | low polyreactivity
13 | QVKLVESGGGLVQAGGSLRISCAASGLTFPKYAMGWYRQAPGKERELVAAITQRGGSTYYADSVKVRFTISRDNAKNTVYLEMYWLKREDTAVYYCNARRRDYNNRREFDYWGQGSQVTVSS | high polyreactivity
14 | QVKLVESGGGLVQAGGSLRLICAASGRIFVPYAMGWNRQAPWKETELFAAISRSGGSTYYADSVKGRFTISRDNAKNTVYLQMNSLKTEETAVYYCAVYYRRYKEYGYNYWGQGTEVTVSS | high polyreactivity
15 | QVKLVESGGGLVQAGGSLRLSCAASARIFAQYDMGWYRQEPGKEREFVAAISGGGSSKYYADSVKGRFTISRDNAKNTGYLQMNSLKPEDTAVYYCAAYGRYPSWYAPGNEYWGQGTQVTVSS | low polyreactivity
16 | QVKLVESGGGLVQAGGSLRLSCAASGFIFRGYAMGWYRQAPGKERELVAAINYSGGSTYYADSVKGRFTISRDYAKNTVYLQMNSAKPEYTAVYYCNALGLRYYEYDYWGQGTQVNVSS | low polyreactivity

Row | Sequence | polyreactivity (PSR sort gate)
17 | QVKLVESGGGLVQAGGSLRLSCAASGFIFSKNAMGWYRQAPGKERELVAAISGRGGTTYYADSVKGRFTISRDNAKNTVYLQMNSLIPEDTAVYYCATDNSSHPYDYWGQGTQVTVSS | high polyreactivity
18 | QVKLVESGGGLVQAGGSLRLSCAASGFTFDKYAMGWSRPEPGKERELVATISRRGGSTYYADSVKGRFTISRDNAKNTVYLQMNSLKPEDTAVYYCAKVRYYYSPYREFDYCGQGTQVTVSS | high polyreactivity
19 | QVKLVESGGGLVQAGGSLRLSCAASGRIFNWYAMGWYRQAPGKERELVARISSGDITSYADSVKGRFTISRDNAKNTVYLQMNSLKPEDTALYYCNDDGFFLNVSPYDYWGQGTQVTVSS | low polyreactivity
20 | QVKLVESGGGLVQAGGSLRLSCAASGRILGYYAMGWYRPAPGKERELVAAINRGGRTYYADSVKGRFTISRDNAKNTVYLEMYSLKPEDTAVYYCAAVLYNQWALVYWFGYNYWGQGTQVSVSS | high polyreactivity
21 | QVKLVESGGGLVQAGGSLRLSCAASGSIFSMYTMGWYRQAPGKARELVAAIDRSGGSTYYADSVKGRFTISRDNAKNTVYLQMNSLKPEDTAVYYCATDSVYIYDPYWSSIIEYDYWGQGTQVTVSS | low polyreactivity
22 | QVKLVESGGGLVQAGGSLRLSCAASGSISLYYAMGWYRQAPGKERELVAAISDSGGDTYYADSVKGRFTISRDNAKITVYLQMNSLKPADTAVYYCATDTAYWLWVYALLEYWGQGTQVTVSS | low polyreactivity
23 | QVKLVESGGGLVQAGGSLRLSCAASGSTFAGTAMGWYRQAPGKEREMVAAISWNTGSTYADSVKGRFTISRDNAKNTVYLQMNSLKPEDTAVYYCAADRSHAYYRKNRVDYWGQGTQVTVSS | low polyreactivity
24 | QVKLVESGGGLVQAGGSLRLSCAASGSTFPRYAMGWYRQAPGKEREFVAVIWSGGSTYYADSVKGRFTISRDNAKNTVYFQMNSLIPEDTAVYYCAAEYHTLSKYSGYATHDYWGQGTQVTVSS | low polyreactivity
25 | QVKLVESGGGLVQAGGSLRLSCAASGSTFYAYVMGWYRQAPGKARELVAAISKGGGSTYYADSVKGRFTISRDNAKNTVYLQMNSLKPEDTAVYYSAAYASYSNYRKYNYWGQGTQVTVSS | high polyreactivity
26 | QVKLVESGGGLVQAGGSLRLSCAASGSTFYHNAIGWYRQAPGKERELVARITRGGSTDYADSVKGRFTISRDNAKNTVYLQMNSLKPEDTEVYYCAADIGHFERFYWGQGTQVTVSS | low polyreactivity
27 | QVKLVESGGGLVQAGGSLRLSCAASGSTSRDNAMGWYRQAPGKERELVGAITVIDGTTYYADSVKGRFTISRDNAKNTVYLQMNSLKPEDTAVYYCAADTIWYEYYYWGQGTQVTLSS | low polyreactivity
28 | QVKLVESGGGLVQAGGSLRLSCAASGSTYWQYSMGWYRHAPGKEREFVAAISSRGGSTYYADSVKGRFTISRDNAKNTVYLQMNSLKPEDTAVYYFAAKNYFAFIRTYRYVHRPTYYYWGQGTQVTVSS | high polyreactivity
29 | QVKLVESGGGLVQAGGSLRLSCADSGSIFYNNAMGWYRQAPGKERELVATIRRSGGSTYYADSVKGRFTISRDNAKNTVYLQMISLKPEDTAVDYCNAPPYLALVLIDYDYWGQGTQVTVSS | low polyreactivity
30 | QVKLVESGGGLVQAGGSLRLSSAASGSTFDSNAMGWYRQEPGKERELVAAITRGGSTNYADSVKGRFTISRDNAKNTVYLQMNSLKPEDTAVYYCAAASETLGYATYGSGYDYWGQGTQVTVSS | low polyreactivity
31 | QVKLVESGGGLVQAGGSLRLTCAASGRTFARYAMGWSRQEPGKERELVAAISRRGTSTYYADSVKGRFTISRDNAKNTVYLQMNSLKPEDTAVYYCAVDPYLGHYDYWGQGTQVTVSS | high polyreactivity
